Reference: US20250269026A1 (CHENGDU KELUN PRECISION BIOTECHNOLOGY, published 2025)

Target: biotin-labeled MSLN antigen (UniProt Q13421 296-580, limits assumed, biotin label (site not stated))
Experiment: flow cytometry; CAR-T cells labeled with biotin-labeled MSLN antigen, detected with fluorescent streptavidin
Source text: The nucleic acid sequence encoding the CAR was expressed under the drive of promoter, and the lentivirus-transfected T cells were labeled with biotin-labeled MSLN antigen, and then detected with fluorescently labeled streptavidin, and determined by flow cytometry, which reflected the expression level of the CAR on the surface of T cells. The CAR positive rate of the CAR-T cells obtained in Example 3 was detected by the above method, and the FACS detection results were shown in the following table.

biotin-labeled MSLN antigen, sequence (Q13421 other isoform, or with tags, fused parts or gaps limits assumed): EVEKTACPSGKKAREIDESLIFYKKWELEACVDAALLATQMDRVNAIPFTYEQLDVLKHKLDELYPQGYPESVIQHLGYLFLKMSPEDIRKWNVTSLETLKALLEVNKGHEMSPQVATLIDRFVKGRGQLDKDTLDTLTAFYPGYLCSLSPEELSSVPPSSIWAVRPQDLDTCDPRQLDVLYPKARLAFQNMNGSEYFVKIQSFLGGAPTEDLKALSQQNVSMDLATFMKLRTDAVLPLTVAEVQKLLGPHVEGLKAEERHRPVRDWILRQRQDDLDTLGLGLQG

B1: G5-CAR (other)
chain: QVQLVQSGGGLVQPGRSLRLSCAASGFTFDDYAMHWVRQAPGKGLEWVSGISWNSGSIGYADSVKGRFTISRDNAKNSLYLQMNSLRAEDTALYYCAKDMGSSGWSPVDYWGQGTLVTVSSASGGGGSGGRASGGGGSDIQVTQSPSSLSASVGDRVTITCRASQGINHYLAWYQQKPGKAPKLLIYGASTLQTGVSSRFSGSGSGTEFTLTISSLQPEDFATYYCQQLNGYPLGYTFGQGTKVEIKRTTTPAPRPPTPAPTIASQPLSLRPEACRPAAGGAVHTRGLDFACDIYIWAPLAGTCGVLLLSLVITLYCKRGRKKLLYIFKQPFMRPVQTTQEEDGCSCRFPEEEEGGCELRVKFSRSADAPAYKQGQNQLYNELNLGRREEYDVLDKRRGRDPEMGGKPRRKNPQEGLYNELQKDKMAEAYSEIGMKGERRRGKGHDGLYQGLSTATKDTYDALHMQALPPR
notes: Chimeric antigen receptor on lentivirus-transduced human T cells; the signal peptide is left out here; also called G5 chimeric antigen receptor
Binder B1 has a CAR positive rate of 50.5%.

B2: G16-CAR (other)
chain: QVQLVQSGAEVTKPGASVKVSCRASGYPFSNFFMNWVRQAPGQGLEWMGIINPIGGSTTYAQKFQGRVTMTRDTSTDTVYMELSSLRSDDTAVYYCARSSSHLGAFDIWGQGTMVTVSSASGGGGSGGRASGGGGSDIQLTQSPSSVSASVGDRVTITCRASQSISTWVAWYQHKPGVAPKLLIYASPTLQSGVPSRFSGSGSGTDFTLTISSLQSEDFATYYCQQAHSFPITFGQGTRLEIKRTTTPAPRPPTPAPTIASQPLSLRPEACRPAAGGAVHTRGLDFACDIYIWAPLAGTCGVLLLSLVITLYCKRGRKKLLYIFKQPFMRPVQTTQEEDGCSCRFPEEEEGGCELRVKFSRSADAPAYKQGQNQLYNELNLGRREEYDVLDKRRGRDPEMGGKPRRKNPQEGLYNELQKDKMAEAYSEIGMKGERRRGKGHDGLYQGLSTATKDTYDALHMQALPPR
notes: Chimeric antigen receptor on lentivirus-transduced human T cells; the signal peptide is left out here; also called G16 chimeric antigen receptor
With B2 the CAR positive rate was 41.5%.
